Data on 28 molecules can be found in US20070092518A1 (published 2007).

First the molecules themselves.
B1: TNFα antibody C7 (full-length antibody) (antibody, V domains shown)
VH: EVQLVESGGGLVQPGGSLRLSCAASGFIFSNHWMNWVRQAPGKGLEWIGEIRSKSINSATHYAESVKGRFIISRDDNKNSLYLEMNSLKTEDTAEYYCARNYYGSTYDYWGQGTLVTVS
VL: EIVLTQSPDFQSVTPKEKVTITCRASQFVGSSIHWYQQKPDQSPKLLIKYASESMSGVPSRFSGSGSGTDFTFTISSLEAEDAATYYCQQSHSWPFTFGPGTKVDIK
notes: Variable regions subcloned into a mammalian construct with infliximab constant region (IgG1 kappa)
B2: SEQ ID NO 161 (Fab, V domains shown)
VH: B1 VH with V5T, A23R, N57Y, K78G, S80D, R100Q, Y107P
VL: B1 VL
notes: Fab, E. coli lysate
B3: SEQ ID NO 71 (Fab, V domains shown)
VH: EVQLTESGGGLVQPGGSLRLSCRASGSTFSNHWMNWVRQAPGKGLEWIGEIRSKSIYGATSYAESVKGRFIISRDGNKTSLTLEMNSLKTEDTAEYYCARNYYGSTPDYWGQGTLVTVS
VL: B1 VL
notes: Fab, E. coli lysate
B4: SEQ ID NO 181 (Fab, V domains shown)
VH: B1 VH with I28T, I56S, N57Y, Y82T, R100Q, Y107P
VL: B1 VL
notes: Fab, E. coli lysate
B5: SEQ ID NO 174 (Fab, V domains shown)
VH: B3 VH with T5V, W33Y, I56S, G58S, G76D, S80D, R100Q
VL: B1 VL
notes: Fab, E. coli lysate
B6: SEQ ID NO 172 (Fab, V domains shown)
VH: B3 VH with R23A, S27F, S61H, T79N, S80D, R100Q
VL: B1 VL
notes: Fab, E. coli lysate
B7: SEQ ID NO 184 (Fab, V domains shown)
VH: B1 VH with G26Q, W33Y, D76G, K78G, N79T, S80D
VL: B1 VL
notes: Fab, E. coli lysate
B8: SEQ ID NO 166 (Fab, V domains shown)
VH: B1 VH with G26Q, W33Y, H61S, D76G, N79T, S80D
VL: B1 VL
notes: Fab, E. coli lysate
B9: SEQ ID NO 182 (Fab, V domains shown)
VH: B3 VH with R23A, S27F, W33Y, G58S, S61H, K78G, S80D, T82Y, R100Q
VL: B1 VL
notes: Fab, E. coli lysate
B10: SEQ ID NO 186 (Fab, V domains shown)
VH: B3 VH with R23A, W33Y, G58S, G76D, K78G, T79N
VL: B1 VL
notes: Fab, E. coli lysate
B11: SEQ ID NO 187 (Fab, V domains shown)
VH: B3 VH with R23A, S27F, W33Y, I56S, K78G, S80D, T82Y, R100Q, P107Y
VL: B1 VL
notes: Fab, E. coli lysate
B12: SEQ ID NO 180 (Fab, V domains shown)
VH: B1 VH with A23R, W33Y, I56S, N79T, Y82T, R100Q, Y107P
VL: B1 VL
notes: Fab, E. coli lysate
B13: SEQ ID NO 162 (Fab, V domains shown)
VH: B1 VH with G26Q, W33Y, I56S, N57Y, D76G, S80D, Y82T
VL: B1 VL
notes: Fab, E. coli lysate
B14: SEQ ID NO 170 (Fab, V domains shown)
VH: B1 VH with F27S, I28T, K78G, N79T, R100Q
VL: B1 VL
notes: Fab, E. coli lysate
B15: SEQ ID NO 163 (Fab, V domains shown)
VH: B1 VH with G26Q, N57Y, N79T, S80D, Y82T, R100Q, Y107P
VL: B1 VL
notes: Fab, E. coli lysate
B16: SEQ ID NO 165 (Fab, V domains shown)
VH: B1 VH with G26Q, I28T, W33Y, I56S, N57Y, S58G, D76G, N79T, S80D, R100Q
VL: B1 VL
notes: Fab, E. coli lysate
B17: SEQ ID NO 190 (Fab, V domains shown)
VH: B1 VH with A23R, H61S, D76G, N79T, S80D, Y82T
VL: B1 VL
notes: Fab, E. coli lysate
B18: SEQ ID NO 178 (Fab, V domains shown)
VH: B1 VH with I28T, W33Y, N57Y, D76G, K78G, Y82T, Y107P
VL: B1 VL
notes: Fab, E. coli lysate
B19: SEQ ID NO 167 (Fab, V domains shown)
VH: B1 VH with G26Q, I28T, I56S, N57Y, S58G, N79T, S80D, Y82T
VL: B1 VL
notes: Fab, E. coli lysate
B20: SEQ ID NO 168 (Fab, V domains shown)
VH: B3 VH with R23A, G26Q, Y57N, T82Y
VL: B1 VL
notes: Fab, E. coli lysate
B21: SEQ ID NO 171 (Fab, V domains shown)
VH: B1 VH with G26Q, F27S, I28T, W33Y, N57Y, H61S, K78G, R100Q, Y107P
VL: B1 VL
notes: Fab, E. coli lysate
B22: SEQ ID NO 179 (Fab, V domains shown)
VH: B3 VH with R23A, G26Q, S27F, I56S, Y57N, S61H, G76D, K78G
VL: B1 VL
notes: Fab, E. coli lysate
B23: SEQ ID NO 169 (Fab, V domains shown)
VH: B1 VH with V5T, W33Y, S58G, H61S, K78G, S80D, Y82T, R100Q, Y107P
VL: B1 VL
notes: Fab, E. coli lysate
B24: SEQ ID NO 189 (Fab, V domains shown)
VH: B3 VH with R23A, G26Q, S27F, G58S, S61H, G76D, K78G
VL: B1 VL
notes: Fab, E. coli lysate
B25: SEQ ID NO 164 (Fab, V domains shown)
VH: B1 VH with V5T, F27S, W33Y, N57Y, D76G, K78G, N79T, S80D
VL: B1 VL
notes: Fab, E. coli lysate
B26: SEQ ID NO 175 (Fab, V domains shown)
VH: B1 VH with A23R, S58G, N79T, Y82T, R100Q
VL: B1 VL
notes: Fab, E. coli lysate
B27: SEQ ID NO 177 (Fab, V domains shown)
VH: B3 VH with R23A, G26Q, W33Y, I56S, Y57N, G76D, T79N, S80D, R100Q, P107Y
VL: B1 VL
notes: Fab, E. coli lysate
B28: SEQ ID NO 188 (Fab, V domains shown)
VH: B1 VH with W33Y, N57Y, S58G, H61S, S80D, R100Q
VL: B1 VL
notes: Fab, E. coli lysate

Substitutions are numbered along the chain they refer to.

In one test the target is T1, human tumor necrosis factor-α (rHuTNF-alpha, Biosource) (human, UniProt P01375 77-233).
T1 construct: Bought recombinant protein coated on ELISA plates; The TNFα of the Biacore assay is not described further; also called TNFα; human TNFα
T1 sequence (P01375 77-233 limits assumed): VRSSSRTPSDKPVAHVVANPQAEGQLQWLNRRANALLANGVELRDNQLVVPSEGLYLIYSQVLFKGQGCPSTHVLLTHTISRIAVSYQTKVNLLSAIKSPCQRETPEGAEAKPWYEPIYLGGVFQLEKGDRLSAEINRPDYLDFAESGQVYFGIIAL
The test can be described thus: Biacore.
B1 had a Kd of 0.07 nM.

The next test concerns the target T1, human tumor necrosis factor-α …. Description: solid-phase ELISA, Fab lysate on coated rHuTNF-alpha. Put shortly: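 E. coli lysates expressing His-tagged Fab (pTrcHis2A) were incubated 2 h at RT on wells coated with 1 μg/ml rHuTNF-α and blocked with BSA. Bound Fab was detected with biotinylated anti-human kappa plus penta-His conjugates, then streptavidin-POD and TMB. Absorbance was read at 450 nm.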
Regarding B2, the binding result is recorded as “binds”.

As to B3, the binding result is “binds”.

Take B4: the binding result was “binds”.

For B5, the binding result was “binds”.

Turning to B6, the binding result was “binds”.

B7: the binding result was “binds”.

Consider B8, for which the binding result is listed as “binds”.

Take B9: the binding result is reported as “binds”.

Take B10: the binding result is given as “binds”.

For the molecule B11, the binding result is on record as “binds”.

In the case of B12, the binding result is recorded as “binds”.

In the case of B13, the binding result is given as “binds”.

As for B14, the binding result is on record as “binds”.

For the molecule B15, the binding result is reported as “binds”.

For the molecule B16, the binding result is recorded as “binds”.

As for B17, the binding result is on record as “binds”.

As for B18, the binding result is recorded as “binds”.

Turning to B19, the binding result is listed as “binds”.

B20: the binding result is “binds”.

For B21, the binding result is recorded as “binds”.

As to B22, the binding result is recorded as “binds”.

Regarding B23, the binding result is recorded as “binds”.

For the molecule B24, the binding result is listed as “binds”.

For the molecule B25, the binding result is on record as “binds”.

With B26, the binding result is on record as “binds”.

As to B27, the binding result was “binds”.

In the case of B28, the binding result is given as “binds”.

The next test has the same target. The test can be described thus: Biacore, against infliximab.
For the molecule B1, the “fold higher binding affinity than infliximab” value is over 2 fold.
